Target: the molecule itself
Assay: SEC-MALS; MALLS on each separated gel filtration peak; Wyatt EOS 18-angle light scattering detector, Optilab r-EX refractometer

B1: Fibrillin-1 fragment PF17-1 WMS (Weill-Marchesani syndrome deletion mutant) (domain or fragment)
chain: not shown
notes: human fibrillin-1, fragment PF17-1 (exons 30-43, residues 1238-1807) with the 8 amino acid deletion in TB5 found in patients with WMS; Purifies as a monomer (86%) and a disulfide-linked dimer (14%); the deletion removes Cys 1695; also called WMS mutant
Q: Which “stoichiometry N” value does the source give for B1 here?
A: 2

Source: publication PMC3487758, “Fibrillin-1 Mutations Causing Weill-Marchesani Syndrome and Acromicric and Geleophysic Dysplasias Disrupt Heparan Sulfate Interactions” (PLoS ONE, 2012)
